Data taken from PMC6251626.

Molecular target: αβ-tubulin heterodimer purified from porcine brains (porcine) (UniProt P02550)
Experiment: ITC; DRP or DRPΔN (135-250 μM) injected into αβ-tubulin (20-40 μM); 25°C, 50 mM HEPES pH 7.3, 100 mM KCl, 1 mM MgCl2, 50 μM GDP

- Kd: 461 nM
Substance: DRPΔN (DARPin D1 without its N-terminal ankyrin repeat) (designed binder)
